Assay results from PMC6435710.

Assays:
[1] = molecular target: salmon Calcitonin (salmon); test: cross-linking; PICUP (Ru(bpy)3, ammonium persulfate, 2 s light) then tricine SDS-PAGE, silver stain and densitometry; native unfractioned Monomer-enriched sample (powder dissolved in desalted water, 80 uM)
[2] = molecular target: salmon Calcitonin (salmon); test: SEC; Sephadex G50 column at 4 °C, 5 mM phosphate buffer pH 7.4; spontaneously aggregated native sCT (2 mg incubated overnight at room temperature); calibrated with BSA, cytochrome c, aprotinin, somatostatin; absorbance at 280 nm
[3] = molecular target: salmon Calcitonin (salmon); test: cross-linking; PICUP (Ru(bpy)3, ammonium persulfate, 2 s light) then tricine SDS-PAGE, silver stain and densitometry; PFOs-enriched SEC fractions (29th and 30th), 80 uM

salmon Calcitonin (peptide)
PFOs% (trimers + tetramers + pentamers + hexamers percentage of the gel lane) [1]: 16.5% | stoichiometry N [2]: 2 | PFOs% (trimers + tetramers + pentamers + hexamers percentage of the gel lane) [3]: 54%
